These results are taken from paper PMC5568246.

The target of test [1] is L7/L12-depleted 70S ribosomes reconstituted with recombinant L12 (E. coli | E. coli (endogenous in JE28)) (UniProt P0A7K2). The test can be described thus: co-sedimentation.
For test [2], the target named is L7/L12-depleted 70S ribosomes (E. coli (endogenous in JE28)) (UniProt P0A7J3). The test can be described thus: SEC.
For test [3] the target is unchanged. The test can be described thus: co-sedimentation.
Test [4] has as its target 70S ribosomes (E. coli JE28, with endogenous L7/L12) (E. coli (endogenous in JE28)) (UniProt P0A7K2). The test can be described thus: other fluorescence titration.
The target in test [5] is recombinant ribosomal protein L12 (E. coli) (UniProt P0A7K2). The test can be described thus: SEC.

Chain of UniProt P0A7J3 (P0A7J3 whole entry, looked up): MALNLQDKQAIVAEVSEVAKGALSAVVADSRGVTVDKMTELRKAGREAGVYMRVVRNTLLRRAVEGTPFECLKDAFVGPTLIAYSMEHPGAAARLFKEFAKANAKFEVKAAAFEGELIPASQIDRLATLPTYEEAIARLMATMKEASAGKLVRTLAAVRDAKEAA

For the substance “initiation factor 2 (from UniProt P0A705 1-890) (enzyme)”, the percent binding relative to complete 70S in test [1] came to 100%.
Still for that read-out and setting: the value for “release factor 3 (from UniProt P0A7I4 1-529) (enzyme)” was 100%.
Turning to “leader peptidase A (from UniProt P60785 1-599) (enzyme)”, the percent binding retained in test [2] and in test [3] was more than 50% each time.
On to “elongation factor G (from UniProt P0A6M8 1-704) (enzyme)”, for which, in test [2], the percent co-eluted with the ribosomes is 20%.
“EF-G-591 coupled with 5-iodoacetomido fluorescein (from UniProt P0A6M8 1-704) (enzyme)” came in with a Kd in test [4] of 23 nM.
For “recombinant ribosomal protein L12 (from UniProt P0A7K2 1-121) (natural protein)”, the stoichiometry N in test [5] is 2.
